Two variants from IntAct's records for PubMed 21565615 can be followed below.

The labels stand for the following.
B1: Protein c-Fos (Mus musculus), P01101 (parent)
chain: MMFSGFNADYEASSSRCSSASPAGDSLSYYHSPADSFSSMGSPVNTQDFCADLSVSSANFIPTVTAISTSPDLQWLVQPTLVSSVAPSQTRAPHPYGLPTQSAGAYARAGMVKTVSGGRAQSIGRRGKVEQLSPEEEEKRRIRRERNKMAAAKCRNRRRELTDTLQAETDQLEDEKSALQTEIANLLKEKEKLEFILAAHRPACKIPDDLGFPEEMSVASLDLTGGLPEASTPESEEAFTLPLLNDPEPKPSLEPVKSISNVELKAEPFDDFLFPASSRPSGSETSRSVPDVDLSGSFYAADWEPLHSNSLGMGPMVTELEPLCTPVVTCTPGCTTYTSSFVFTYPEADSFPSCAAAHRKGSSSNEPSSDSLSSPTLLAL

The assay covers variants of B1. Conditions: with esr2_mouse Esr2, O08537.
Sequence of esr2_mouse Esr2, O08537 (O08537 whole entry): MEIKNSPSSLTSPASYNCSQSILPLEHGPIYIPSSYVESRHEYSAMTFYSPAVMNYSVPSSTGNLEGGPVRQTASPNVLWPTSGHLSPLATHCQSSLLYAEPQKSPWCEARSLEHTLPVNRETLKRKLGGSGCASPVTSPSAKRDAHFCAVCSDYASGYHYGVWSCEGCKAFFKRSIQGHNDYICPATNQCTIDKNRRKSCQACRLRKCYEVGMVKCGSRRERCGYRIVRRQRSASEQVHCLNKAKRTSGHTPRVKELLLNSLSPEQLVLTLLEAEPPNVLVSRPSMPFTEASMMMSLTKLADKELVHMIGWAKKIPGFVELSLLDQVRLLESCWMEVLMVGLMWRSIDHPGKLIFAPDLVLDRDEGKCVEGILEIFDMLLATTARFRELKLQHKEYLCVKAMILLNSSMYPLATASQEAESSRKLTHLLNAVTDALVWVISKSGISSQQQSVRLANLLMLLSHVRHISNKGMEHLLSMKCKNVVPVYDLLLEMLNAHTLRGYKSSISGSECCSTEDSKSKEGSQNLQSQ
As to S362E, the “effect of a mutation on the interaction” value is listed as “increasing interaction”. For S362A the value was “decreasing interaction”.
